# From patent publication US20200353078A1 (AstraZeneca / MedImmune, published 2020)
# Substitutions are numbered along the chain they refer to.
# T1: ST2 on human umbilical vein endothelial cells (human, UniProt Q01638 19-556)
# T1 sequence (looked up): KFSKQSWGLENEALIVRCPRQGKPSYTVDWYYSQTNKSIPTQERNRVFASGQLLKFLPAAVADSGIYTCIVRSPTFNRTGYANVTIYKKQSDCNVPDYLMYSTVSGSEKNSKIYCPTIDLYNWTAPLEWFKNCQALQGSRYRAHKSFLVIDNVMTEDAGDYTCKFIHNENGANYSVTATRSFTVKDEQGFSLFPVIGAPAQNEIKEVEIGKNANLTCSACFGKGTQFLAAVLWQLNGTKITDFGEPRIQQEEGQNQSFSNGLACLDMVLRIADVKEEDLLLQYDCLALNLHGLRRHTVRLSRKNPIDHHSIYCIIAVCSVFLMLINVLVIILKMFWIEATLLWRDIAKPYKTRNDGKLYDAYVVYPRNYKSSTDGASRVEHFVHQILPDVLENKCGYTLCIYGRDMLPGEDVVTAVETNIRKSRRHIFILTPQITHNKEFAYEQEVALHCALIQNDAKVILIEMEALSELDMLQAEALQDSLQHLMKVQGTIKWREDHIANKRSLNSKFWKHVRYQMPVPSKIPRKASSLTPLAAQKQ
# T2: His10/Avi Cyno IL-33 (cynomolgus monkey)
# T2 construct: also called Cynomolgus 10His Avitag IL-33; biotinylated His Avi cynomolgus IL-33
# T2 chain: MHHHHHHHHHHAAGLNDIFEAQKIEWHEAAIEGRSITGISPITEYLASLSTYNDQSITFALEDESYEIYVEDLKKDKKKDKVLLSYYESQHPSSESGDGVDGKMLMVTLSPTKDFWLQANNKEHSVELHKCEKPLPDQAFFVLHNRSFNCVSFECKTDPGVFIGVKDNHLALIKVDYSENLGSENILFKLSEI
# T3: Human IL-33 Flag®His (human)
# T3 chain: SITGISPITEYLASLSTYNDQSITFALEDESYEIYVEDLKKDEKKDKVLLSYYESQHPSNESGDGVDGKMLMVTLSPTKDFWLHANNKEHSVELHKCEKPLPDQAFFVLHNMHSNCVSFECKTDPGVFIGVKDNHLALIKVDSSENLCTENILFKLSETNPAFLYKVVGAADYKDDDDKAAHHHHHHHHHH
# T4: Cynomolgus IL-33 Flag®His (cynomolgus monkey)
# T4 construct: C-terminal FLAG 10xHis tag, E. coli; also called Mature Cynomolugus IL-33; cyno IL-33 FH
# T4 chain: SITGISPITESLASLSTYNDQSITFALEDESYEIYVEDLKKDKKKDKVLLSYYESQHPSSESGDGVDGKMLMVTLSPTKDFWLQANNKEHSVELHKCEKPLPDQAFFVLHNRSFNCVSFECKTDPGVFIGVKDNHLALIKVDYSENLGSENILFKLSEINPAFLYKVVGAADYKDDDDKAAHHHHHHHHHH
# B1: His10/Avi Human IL33-01 (ligand)
# chain: T2 chain with K77E, S94N, Q118H, R146M, S147H, F148S, Y177S, G182C, S183T, I193T
# B2: His10/Avi Human IL33-11 (ligand)
# chain: MHHHHHHHHHHAAGLNDIFEAQKIEWHEAAIEGRSITGISPITEYLASLSTYNDQSITFALEDESYEIYVEDLKKDEKKDKVLLSYYESQHPSNESGDGVDGKMLMVTLSPTKDFWLHANNKEHSVELHKSEKPLPDQAFFVLHNMHSNCVSFECKTDPGVFIGVKDNHLALIKVDSSENLSTENILFKLSET
# B3: 33_640027 scFv (scFv, V domains shown)
# VH: EVQLLESGGDLVQPGGSLRLSCAASGFTFSSYAMSWVRQAPGKGLEWVSAIGGSGGSTYYADSVKGRFTISRDNSKNTLYLQMNSLRAEDTAVYYCARDLWMQLWGGGLRYPFGYWGQGTMVTVSS
# VL: LPVLTQPPSVSVSPGQKASITCSGERIGDKYAAWYQQKPGQSPILVIYRDTKRPSGIPERFSGSNSGNTATLTISGTQDMDEADYYCQVWDSSTGVFGGGTKVTVL
# notes: Single chain Fv
# B4: 33v20064 scFv (scFv, V domains shown)
# VH: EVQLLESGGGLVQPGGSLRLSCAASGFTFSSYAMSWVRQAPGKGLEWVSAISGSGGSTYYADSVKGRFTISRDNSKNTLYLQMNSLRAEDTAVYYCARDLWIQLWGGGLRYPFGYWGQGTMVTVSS
# VL: B3 VL with I27M, R49Q
# notes: Single chain Fv
# B5: 33_640050 scFv (scFv, V domains shown)
# VH: B3 VH with D10G, G52S, A97P, D99H, L100K, W101F
# VL: B3 VL with L1S, P2Y, K17T, I27M, I44V, R49Q, D79A
# notes: Single chain Fv
# B6: IL330126 IgG1 (antibody, V domains shown)
# VH: EVQLVQSGAELKKPGASVKVSCKTSGYSFNTYGISWVRQAPGQGLEWMGWVSGDDGNINYAEKFQGRVAMTTDTSTTTAYMELWSLTSDDTAVYYCARVRRGSGWYKNYHYYMDVWGQGTMVTVSS
# VL: QSVLTQPPSVSVSPGQTASVTCSGDRLGDKYASWYQQKPGQSPVLVIYQDRKRPSGIPERFSGSNSGNTATLTISGTQAMDEADYYCQAWDGSTALFGGGTKLTVL
# notes: Human IgG1, lambda constant
# B7: IL330125 IgG1 (antibody, V domains shown)
# VH: EVQLVQSGAEVKKPGASVTVSCKASGYSFTDYYIHWVRQAPGQGPEWMGWINPNSGVTDFAQKFLGRVTMTRDTSISTAYMELSRLTSDDTALYYCARVAFVYYDSSAFQYWGKGTLVTVSS
# VL: LPVLTQPPSVSVSPGQTATITCSADKLGDKYAAWYQQKPGQSPVLVIYQDRKRPSGIPERFSGSNSGNTATLIISGTQAMDEADYYCQAWDSNTGLYVFGTGTKLTVL
# notes: Human IgG1, lambda constant
# Legend:
# [1] = target: T1, ST2 on human umbilical vein endothelial …; assay: cell-based or functional assay
# His10/Avi Human IL33-01 [2] = target: B1; assay: HTRF epitope competition, scFv titrated; competitor DyLight labelled 33v20064 IgG
# Procedure: (§1) This was followed by the addition of 2.5 microlitres of a solution containing 0.8 nM biotinylated human IL-33-01 combined with 0.75 nM streptavidin cryptate detection (Cisbio International, 610SAKLB) for the human assay or a solution containing 4 nM biotinylated cynomolgus IL-33 combined with 1.5 nM streptavidin cryptate detection (Cisbio International, 610SAKLB) for the cynomolgus assay. All dilutions were performed in assay buffer containing 0.8 M potassium fluoride (VWR, 26820.236) and 0.1% bovine serum albumin (BSA, PAA, K05-013) in Dulbeccos PBS (Invitrogen, 14190185). Assay plates were incubated for 1 hour at room temperature and time resolved fluorescence was read at 620 nm and 665 nm emission wavelengths using an EnVision plate reader (Perkin Elmer). Data were analysed by calculating the 665/620 nm ratio followed by the % Delta F values for each sample. The 665/620 nm ratio was used to correct for sample interference using Equation 1. The % Delta F for each sample was then calculated using Equation 2. The negative control (non-specific binding) was defined by replacing biotinylated IL-33 combined with streptavidin cryptate detection with streptavidin cryptate detection only. The % Delta F values were subsequently used to calculate % specific binding as described in Equation 3.
# (§2) Unique scFv were expressed again in bacteria and purified by affinity chromatography (as described in WO01/66754). Purified anti-IL-33 antibody samples were tested for potency of inhibition by competing a dilution series of the purified preparation against DyLight labelled 33v20064 IgG or DyLight labelled 33_640027 IgG for binding to biotinylated His Avi IL33-01, biotinylated His Avi IL33-11 or biotinylated His Avi cynomolgus IL-33. Methods are as described in the previous section.
# His10/Avi Human IL33-11 [3] = target: B2; assay: as above
# Procedure: as §1, §2
# His10/Avi Cyno IL-33 [4] = target: T2, His10/Avi Cyno IL-33; assay: as above
# Procedure: as §1, §2
# His10/Avi Human IL33-01 [5] = target: B1; assay: HTRF epitope competition, scFv titrated; competitor DyLight labelled 33_640027 IgG
# His10/Avi Human IL33-11 [6] = target: B2; assay: as above
# His10/Avi Cyno IL-33 [7] = target: T2, His10/Avi Cyno IL-33; assay: as above
# Human IL-33 Flag®His [8] = target: T3, Human IL-33 Flag®His; assay: cell-based or functional assay
# Human IL-33 Flag®His [9] = target: T3, Human IL-33 Flag®His; assay: HTRF competition, IgG titrated against biotinylated human ST2-Fc
# Procedure: The ability of anti-IL-33 antibodies to inhibit the binding of FLAG®-His tagged IL-33 to the ST2 receptor was assessed in a biochemical HTRF® (Homogeneous Time-Resolved Fluorescence, Cisbio International) competition assay, the principles of which are described above.
# (§3) Activity of purified IgG preparations were determined by competing a dilution series of the purified IgG against biotinylated human or mouse ST2.Fc for binding to FLAG® His-tagged human, cynomolgus or mouse IL-33.
# (§4) Purified or unpurified anti-IL-33 antibody samples were tested for inhibition of FLAG®-His tagged IL-33 binding ST2-Fc by adding 10 microlitres of each dilution of antibody test sample to a 384 well low volume assay plate (Costar 3676). Next, a solution containing 4 nM biotinylated human or mouse ST2-Fc and 20 nM streptavidin XL665 detection (Cisbio International, 611SAXLB) was prepared and 5 microlitres of the mix added to the assay plate. This was followed by the addition of 5 microlitres of a solution containing 1.2 nM FLAG®-His tagged human, cynomolgus or mouse IL-33 combined with 1.72 nM anti-FLAG® cryptate detection (Cisbio International, 61FG2KLB). All dilutions were performed in assay buffer comprised of Dulbeccos PBS (Invitrogen, 14190185) containing 0.8 M potassium fluoride (BDH 103444T) and 0.1% BSA (Sigma A9576). Assay plates were incubated for 2 hour at room temperature followed by 16 hour at 4° C. before reading time resolved fluorescence at 620 nm and 665 nm emission wavelengths using an EnVision plate reader (Perkin Elmer).
# [10] = target: T4, Cynomolgus IL-33 Flag®His; assay: HTRF competition: purified IgG titrated against biotinylated human ST2-Fc for FLAG-His cynomolgus IL-33
# Procedure: as §3, §4
binder,measurement,setting,value
B1,"IC50 (nM) Untreated, HUVEC NFkB translocation assay",[1],0.13 nM
B2,"IC50 (nM) Untreated, HUVEC NFkB translocation assay",[1],0.49 nM
B3,IC50,His10/Avi Human IL33-01 [2],0.4 nM
same,IC50,His10/Avi Human IL33-11 [3],0.6 nM
same,IC50,His10/Avi Cyno IL-33 [4],8.2 nM
same,IC50,His10/Avi Human IL33-01 [5],3.8 nM
same,IC50,His10/Avi Human IL33-11 [6],2.9 nM
same,IC50,His10/Avi Cyno IL-33 [7],38 nM
B4,IC50,His10/Avi Human IL33-01 [2],12 nM
same,IC50,His10/Avi Human IL33-11 [3],26 nM
same,IC50,His10/Avi Cyno IL-33 [4],103 nM
same,IC50,His10/Avi Human IL33-01 [5],1500 nM
same,IC50,His10/Avi Human IL33-11 [6],1470 nM
same,IC50,His10/Avi Cyno IL-33 [7],3430 nM
B5,IC50,His10/Avi Human IL33-01 [2],0.2 nM
same,IC50,His10/Avi Human IL33-11 [3],0.4 nM
same,IC50,His10/Avi Cyno IL-33 [4],1.4 nM
same,IC50,His10/Avi Human IL33-01 [5],2.5 nM
same,IC50,His10/Avi Human IL33-11 [6],2.4 nM
same,IC50,His10/Avi Cyno IL-33 [7],4.1 nM
B6,"IC50, human ST2 transfected HeLa NFkB luciferase reporter assay",Human IL-33 Flag®His [8],245 nM
same,IC50,Human IL-33 Flag®His [9],226 nM
same,binding result,[10],binds
B7,"IC50, human ST2 transfected HeLa NFkB luciferase reporter assay",Human IL-33 Flag®His [8],332 nM
same,IC50,Human IL-33 Flag®His [9],210 nM
same,binding result,[10],binds
